# US20130287807A1, “COMPOUNDS FOR TREATING SYMPTOMS ASSOCIATED WITH PARKINSON'S DISEASE” (priority 2008, published 2013)
# Key:
# [1] = system: monoclonal antibody MV-002; test: In vitro binding assay (ELISA), BSA-coupled peptides, parental antibody MV-002; parameters: species or system C57/B16 mice; conditions: Table 1 (MV-002); peptide-BSA on plate, compared to original epitope
# Procedure: Peptides derived from Phage Display as well as variants thereof were coupled to BSA and bound to ELISA plates (1 μM; as indicated in the respective figures) and subsequently incubated with the monoclonal antibody that was used for the screening procedure to analyse binding capacity of identified peptides.
# Legend to Table 1: the binding capacity is coded by the following binding code: 1:X describes the dilution factor of the parental AB. Ac- . . . indicates acetylated AA.
# [2] = system: monoclonal antibody MV-002; test: In vitro inhibition assay (ELISA), MV-002 binding to original epitope; parameters: species or system C57/B16 mice; conditions: Table 2 (MV-002); OD at 5 ug peptide compared to original peptide
# Procedure: Different amounts of peptides (concentrations ranging from 10 μg to 0.08 μg; serial dilutions; for MV-002: concentrations ranging from 5 μg to 0.03 μg; serial dilutions), derived from Phage Display were incubated with the monoclonal antibody that was used for the screening procedure. Peptides diminishing subsequent binding of the antibody to the original epitope coated on ELISA plates were considered as inhibiting in this assay.
# Legend to Table 2: the inhibition capacity is coded by the following code: Weak inhibition means more peptide is required to lower AB binding than with the original epitope; strong inhibition means similar peptide amounts are required for mimotope and original epitope for lowering AB binding. Mimotopes are compared to the original peptide as standard. OD at 5 ug peptide used in the assay is used to calculate the competition capacity compared to original peptide.
# [3] = biological target: monoclonal antibody MV-001; test: ELISA on peptide-BSA; code 3 = strong binding, OD halfmax 1:>20000
# [4] = biological target: monoclonal antibody MV-001; test: inhibition ELISA, competitor coated original epitope p4371; code 1 = weaker than original epitope
# [5] = biological target: monoclonal antibody MV-001; test: ELISA on peptide-BSA; code 2 = medium binding, OD halfmax 1:4000-20000
# [6] = biological target: DAEFRH-peptide-specific monoclonal antibody (Example 1); test: inhibition ELISA, competitor plate-bound DAEFRH-C-BSA
molecule,measurement,setting,value
NDAKIVFC [p4667],Binding Capacity,[1],3 (strong binding :>320000)
same,Inhibition Capacity,[2],"1 (Weaker than original epitope (OD of peptide below 4, 6 times of original peptide))"
SHQRLWFC [p4674],Binding Capacity,[1],3 (strong binding :>320000)
same,Inhibition Capacity,[2],"1 (Weaker than original epitope (OD of peptide below 4, 6 times of original peptide))"
HQKMIFC [p4794],Binding Capacity,[1],2 (medium binding :40000-320000)
same,Inhibition Capacity,[2],"1 (Weaker than original epitope (OD of peptide below 4, 6 times of original peptide))"
GEILFGMC [p4689],Binding Capacity,[1],3 (strong binding :>320000)
same,Inhibition Capacity,[2],"1 (Weaker than original epitope (OD of peptide below 4, 6 times of original peptide))"
SEFKHGC [p4381],OD halfmax 1:X (dilution factor of the parental antibody at half-maximal OD) (dilutionfactor(1:x)),[3],> 20000
same,OD at 10 ug peptide relative to OD of original peptide (inhibition ELISA),[4],2 to 3 fold
SHFRHGC [p4389],OD halfmax 1:X (dilution factor of the parental antibody at half-maximal OD) (dilutionfactor(1:x)),[5],4000 to 20000
same,OD at 10 ug peptide relative to OD of original peptide (inhibition ELISA),[4],2 to 3 fold
QFKHDLC [p4391],OD halfmax 1:X (dilution factor of the parental antibody at half-maximal OD) (dilutionfactor(1:x)),[5],4000 to 20000
same,OD at 10 ug peptide relative to OD of original peptide (inhibition ELISA),[4],2 to 3 fold
ADHDFRHC [p4740],OD halfmax 1:X (dilution factor of the parental antibody at half-maximal OD) (dilutionfactor(1:x)),[3],> 20000
same,OD at 10 ug peptide relative to OD of original peptide (inhibition ELISA),[4],2 to 3 fold
SFEFRGC [Peptide 3009],IC50,[6],< 5 µg/mL
DKELRC [Peptide 1238],IC50,[6],< 0.5 µg/mL
DWEFRDAC [Peptide 1241],IC50,[6],< 0.5 µg/mL
GKEFRT [Peptide 4035],IC50,[6],< 0.5 µg/mL
SAFRHHC [p4387],OD halfmax 1:X (dilution factor of the parental antibody at half-maximal OD) (dilutionfactor(1:x)),[5],4000 to 20000
same,OD at 10 ug peptide relative to OD of original peptide (inhibition ELISA),[4],2 to 3 fold
TSFRHGC [p4382],OD halfmax 1:X (dilution factor of the parental antibody at half-maximal OD) (dilutionfactor(1:x)),[5],4000 to 20000
same,OD at 10 ug peptide relative to OD of original peptide (inhibition ELISA),[4],2 to 3 fold
ILFRHGC [p4390],OD halfmax 1:X (dilution factor of the parental antibody at half-maximal OD) (dilutionfactor(1:x)),[3],> 20000
same,OD at 10 ug peptide relative to OD of original peptide (inhibition ELISA),[4],2 to 3 fold
SVEFRYH [Peptide 4021],IC50,[6],< 0.5 µg/mL
SWELRQA [Peptide 4020],IC50,[6],> 0.5 µg/mL
SWEFRTC [Peptide 4002],IC50,[6],< 0.4 µg/mL
SSEFRVS [Peptide 4024],IC50,[6],< 0.5 µg/mL
SLEFRF [Peptide 4033],IC50,[6],< 0.5 µg/mL
LPFRHGC [p4388],OD halfmax 1:X (dilution factor of the parental antibody at half-maximal OD) (dilutionfactor(1:x)),[5],4000 to 20000
same,OD at 10 ug peptide relative to OD of original peptide (inhibition ELISA),[4],2 to 3 fold
DRELKIC [Peptide 1237],IC50,[6],> 5 µg/mL
AYEFRH [Peptide 4036],IC50,[6],> 0.5 µg/mL
QSEFKHWC [p4738],OD halfmax 1:X (dilution factor of the parental antibody at half-maximal OD) (dilutionfactor(1:x)),[3],> 20000
same,OD at 10 ug peptide relative to OD of original peptide (inhibition ELISA),[4],2 to 3 fold
SPNQFRHC [p4707],OD halfmax 1:X (dilution factor of the parental antibody at half-maximal OD) (dilutionfactor(1:x)),[3],> 20000
same,OD at 10 ug peptide relative to OD of original peptide (inhibition ELISA),[4],2 to 3 fold
EYEFRGC [Peptide 1239],IC50,[6],> 0.5 µg/mL
TSVFRHC [p4383],OD halfmax 1:X (dilution factor of the parental antibody at half-maximal OD) (dilutionfactor(1:x)),[3],> 20000
same,OD at 10 ug peptide relative to OD of original peptide (inhibition ELISA),[4],2 to 3 fold
GPEFRW [Peptide 4034],IC50,[6],< 0.5 µg/mL
LMFRHNC [p4386],OD halfmax 1:X (dilution factor of the parental antibody at half-maximal OD) (dilutionfactor(1:x)),[3],> 20000
same,OD at 10 ug peptide relative to OD of original peptide (inhibition ELISA),[4],2 to 3 fold
SEFKHC [p4801],OD halfmax 1:X (dilution factor of the parental antibody at half-maximal OD) (dilutionfactor(1:x)),[3],> 20000
same,OD at 10 ug peptide relative to OD of original peptide (inhibition ELISA),[4],2 to 3 fold
DGLLFKHC [p4741],OD halfmax 1:X (dilution factor of the parental antibody at half-maximal OD) (dilutionfactor(1:x)),[3],> 20000
same,OD at 10 ug peptide relative to OD of original peptide (inhibition ELISA),[4],2 to 3 fold
THTDFRHC [p4725],OD halfmax 1:X (dilution factor of the parental antibody at half-maximal OD) (dilutionfactor(1:x)),[3],> 20000
same,OD at 10 ug peptide relative to OD of original peptide (inhibition ELISA),[4],2 to 3 fold
DWEFRD [Peptide 4025],IC50,[6],< 0.5 µg/mL
EEFKYSC [p4393],OD halfmax 1:X (dilution factor of the parental antibody at half-maximal OD) (dilutionfactor(1:x)),[5],4000 to 20000
same,OD at 10 ug peptide relative to OD of original peptide (inhibition ELISA),[4],2 to 3 fold
TPFRHTC [p4384],OD halfmax 1:X (dilution factor of the parental antibody at half-maximal OD) (dilutionfactor(1:x)),[5],4000 to 20000
same,OD at 10 ug peptide relative to OD of original peptide (inhibition ELISA),[4],2 to 3 fold
DWELRQ [Peptide 4032],IC50,[6],< 0.5 µg/mL
SQFRHYC [p4385],OD halfmax 1:X (dilution factor of the parental antibody at half-maximal OD) (dilutionfactor(1:x)),[5],4000 to 20000
same,OD at 10 ug peptide relative to OD of original peptide (inhibition ELISA),[4],2 to 3 fold
DEHPFRHC [p4730],OD halfmax 1:X (dilution factor of the parental antibody at half-maximal OD) (dilutionfactor(1:x)),[3],> 20000
same,OD at 10 ug peptide relative to OD of original peptide (inhibition ELISA),[4],2 to 3 fold
DKELKIC [Peptide 1236],IC50,[6],> 5 µg/mL
ELEFRGC [Peptide 3008],IC50,[6],< 5 µg/mL
DRELRIC [Peptide 1235],IC50,[6],< 0.5 µg/mL
SQEFRTP [Peptide 4023],IC50,[6],< 0.5 µg/mL
EELRHSVC [p4746],OD halfmax 1:X (dilution factor of the parental antibody at half-maximal OD) (dilutionfactor(1:x)),[3],> 20000
same,OD at 10 ug peptide relative to OD of original peptide (inhibition ELISA),[4],2 to 3 fold
SYEFRHH [Peptide 4022],IC50,[6],< 0.5 µg/mL
DAELRY [Peptide 4031],IC50,[6],< 0.5 µg/mL
QDFRHYC [p4380],OD halfmax 1:X (dilution factor of the parental antibody at half-maximal OD) (dilutionfactor(1:x)),[5],4000 to 20000
same,OD at 10 ug peptide relative to OD of original peptide (inhibition ELISA),[4],2 to 3 fold
